Assays:
[1] = biological target: MAdV-2.IXeGFP virus particle (replication competent MAdV-2 with enhanced green fluorescent protein fused to minor capsid protein IX) (mouse adenovirus 2 | not stated)
[2] = biological target: mouse adenovirus 2 (MAdV-2), wild type virus particle (mouse adenovirus 2)
[3] = biological target: MAdV-2.IXeGFP virus particle (replication competent MAdV-2 with enhanced green fluorescent protein fused to minor capsid protein IX) (mouse adenovirus 2 | not stated); remark: listed apart in the source

Molecule	infection of CMT-93 cells by MAdV-2.IXeGFP pre-incubated with cryptdin 2 (dose-responsive over the indicated concentrations), relative to infection without defensin [1] [fold]	infection of CMT-93 cells by MAdV-2 pre-incubated with cryptdin 2 (dose-responsive over the indicated concentrations), relative to infection without defensin [2] [fold]	infection of CMT-93 cells by MAdV-2.IXeGFP pre-incubated with cryptdin 3 (indicated concentrations), relative to infection without defensin [3] [fold]
Cryptdin 2 (peptide)	2.4	1.8	–
LRDLVCYCRKRGCKRRERMNGTCRKGHLMYTLCCR [Cryptdin 3]	–	–	1.7
